Test results reported in the RNAGym collection of RNA variant scans (doi:10.1021/acssynbio.7b00057).

B1: Pistol ribozyme (parent)
chain: GGGUCGUUGUUCCAUAAUCGCGUGGAUAUGGCACGCAAGUUUCUACCGGGCACCGUAAAUGUCCGACUGGAGCCGUUCGGGCGGCUAUAAACAGACCUCAGGCCCGAAGCGUGGCGGCACCUGCCGCCGGUGGUAAAAAAGAUCGGAAGAGCACACGUCU

Variants of: B1
Test: aptazyme ON/OFF ratio, guanine; higher = stronger switching; co-transcriptional cleavage with and without guanine

Variant | aptazyme ON/OFF ratio
GGGUCGCGCGACCAUAAUCGCGUGGAUAUGGCACGCAAGUUUCUACCGGGCACCGUAAAUGUCCGACUGGAGCCGUUCGGGCGGCUAUAAACAGACCUCAGGCCCGAAGCGUGGCGGCACCUGCCGCCGGUGGUAAAAAAGAUCGGAAGAGCACACGUCU | 1.07
GGGUCGCUUACCGAUAAUCGCGUGGAUAUGGCACGCAAGUUUCUACCGGGCACCGUAAAUGUCCGACUGGAGCCGUUCGGGCGGCUAUAAACAGACCUCAGGCCCGAAGCGUGGCGGCACCUGCCGCCGGUGGUAAAAAAGAUCGGAAGAGCACACGUCU | 1.03
GGGUCGAAGCACUAUAAUCGCGUGGAUAUGGCACGCAAGUUUCUACCGGGCACCGUAAAUGUCCGACUGGAGCCGUUCGGGCGGCUAUAAACAGACCUCAGGCCCGAAGCGUGGCGGCACCUGCCGCCGGUGGUAAAAAAGAUCGGAAGAGCACACGUCU | 1.05
GGGUCGUUGUGUAAUAAUCGCGUGGAUAUGGCACGCAAGUUUCUACCGGGCACCGUAAAUGUCCGACUGGAGCCGUUCGGGCGGCUAUAAACAGACCUCAGGCCCGAAGCGUGGCGGCACCUGCCGCCGGUGGUAAAAAAGAUCGGAAGAGCACACGUCU | 1.1
GGGUCGAGUUCGUAUAAUCGCGUGGAUAUGGCACGCAAGUUUCUACCGGGCACCGUAAAUGUCCGACUGGAGCCGUUCGGGCGGCUAUAAACAGACCUCAGGCCCGAAGCGUGGCGGCACCUGCCGCCGGUGGUAAAAAAGAUCGGAAGAGCACACGUCU | 1.27
GGGUCGUUGAUCUAUAAUCGCGUGGAUAUGGCACGCAAGUUUCUACCGGGCACCGUAAAUGUCCGACUGGAGCCGUUCGGGCGGCUAUAAACAGACCUCAGGCCCGAAGCGUGGCGGCACCUGCCGCCGGUGGUAAAAAAGAUCGGAAGAGCACACGUCU | 1.08
GGGUCGCUUAUAGAUAAUCGCGUGGAUAUGGCACGCAAGUUUCUACCGGGCACCGUAAAUGUCCGACUGGAGCCGUUCGGGCGGCUAUAAACAGACCUCAGGCCCGAAGCGUGGCGGCACCUGCCGCCGGUGGUAAAAAAGAUCGGAAGAGCACACGUCU | 1.14
GGGUCGUGGUUGAAUAAUCGCGUGGAUAUGGCACGCAAGUUUCUACCGGGCACCGUAAAUGUCCGACUGGAGCCGUUCGGGCGGCUAUAAACAGACCUCAGGCCCGAAGCGUGGCGGCACCUGCCGCCGGUGGUAAAAAAGAUCGGAAGAGCACACGUCU | 1.2
GGGUCGCGCGCCGAUAAUCGCGUGGAUAUGGCACGCAAGUUUCUACCGGGCACCGUAAAUGUCCGACUGGAGCCGUUCGGGCGGCUAUAAACAGACCUCAGGCCCGAAGCGUGGCGGCACCUGCCGCCGGUGGUAAAAAAGAUCGGAAGAGCACACGUCU | 1.05
GGGUCGGGAUGUCAUAAUCGCGUGGAUAUGGCACGCAAGUUUCUACCGGGCACCGUAAAUGUCCGACUGGAGCCGUUCGGGCGGCUAUAAACAGACCUCAGGCCCGAAGCGUGGCGGCACCUGCCGCCGGUGGUAAAAAAGAUCGGAAGAGCACACGUCU | 1.5
GGGUCGAUGAAUUAUAAUCGCGUGGAUAUGGCACGCAAGUUUCUACCGGGCACCGUAAAUGUCCGACUGGAGCCGUUCGGGCGGCUAUAAACAGACCUCAGGCCCGAAGCGUGGCGGCACCUGCCGCCGGUGGUAAAAAAGAUCGGAAGAGCACACGUCU | 1.22
GGGUCGUAGUUGGAUAAUCGCGUGGAUAUGGCACGCAAGUUUCUACCGGGCACCGUAAAUGUCCGACUGGAGCCGUUCGGGCGGCUAUAAACAGACCUCAGGCCCGAAGCGUGGCGGCACCUGCCGCCGGUGGUAAAAAAGAUCGGAAGAGCACACGUCU | 1.18
GGGUCGAGUAGUCAUAAUCGCGUGGAUAUGGCACGCAAGUUUCUACCGGGCACCGUAAAUGUCCGACUGGAGCCGUUCGGGCGGCUAUAAACAGACCUCAGGCCCGAAGCGUGGCGGCACCUGCCGCCGGUGGUAAAAAAGAUCGGAAGAGCACACGUCU | 1.17
GGGUCGAAAUUCUAUAAUCGCGUGGAUAUGGCACGCAAGUUUCUACCGGGCACCGUAAAUGUCCGACUGGAGCCGUUCGGGCGGCUAUAAACAGACCUCAGGCCCGAAGCGUGGCGGCACCUGCCGCCGGUGGUAAAAAAGAUCGGAAGAGCACACGUCU | 1.22
GGGUCGUCGAGGAAUAAUCGCGUGGAUAUGGCACGCAAGUUUCUACCGGGCACCGUAAAUGUCCGACUGGAGCCGUUCGGGCGGCUAUAAACAGACCUCAGGCCCGAAGCGUGGCGGCACCUGCCGCCGGUGGUAAAAAAGAUCGGAAGAGCACACGUCU | 1.43
GGGUCGAAGGCCUAUAAUCGCGUGGAUAUGGCACGCAAGUUUCUACCGGGCACCGUAAAUGUCCGACUGGAGCCGUUCGGGCGGCUAUAAACAGACCUCAGGCCCGAAGCGUGGCGGCACCUGCCGCCGGUGGUAAAAAAGAUCGGAAGAGCACACGUCU | 1.04
GGGUCGGACGGCGAUAAUCGCGUGGAUAUGGCACGCAAGUUUCUACCGGGCACCGUAAAUGUCCGACUGGAGCCGUUCGGGCGGCUAUAAACAGACCUCAGGCCCGAAGCGUGGCGGCACCUGCCGCCGGUGGUAAAAAAGAUCGGAAGAGCACACGUCU | 1.1
GGGUCGUCCGAGUAUAAUCGCGUGGAUAUGGCACGCAAGUUUCUACCGGGCACCGUAAAUGUCCGACUGGAGCCGUUCGGGCGGCUAUAAACAGACCUCAGGCCCGAAGCGUGGCGGCACCUGCCGCCGGUGGUAAAAAAGAUCGGAAGAGCACACGUCU | 1.11

Variant | aptazyme ON/OFF ratio
GGGUCGAACGCCUAUAAUCGCGUGGAUAUGGCACGCAAGUUUCUACCGGGCACCGUAAAUGUCCGACUGGAGCCGUUCGGGCGGCUAUAAACAGACCUCAGGCCCGAAGCGUGGCGGCACCUGCCGCCGGUGGUAAAAAAGAUCGGAAGAGCACACGUCU | 1.04
GGGUCGAGAUCGGAUAAUCGCGUGGAUAUGGCACGCAAGUUUCUACCGGGCACCGUAAAUGUCCGACUGGAGCCGUUCGGGCGGCUAUAAACAGACCUCAGGCCCGAAGCGUGGCGGCACCUGCCGCCGGUGGUAAAAAAGAUCGGAAGAGCACACGUCU | 1.4
GGGUCGUCCCUCGAUAAUCGCGUGGAUAUGGCACGCAAGUUUCUACCGGGCACCGUAAAUGUCCGACUGGAGCCGUUCGGGCGGCUAUAAACAGACCUCAGGCCCGAAGCGUGGCGGCACCUGCCGCCGGUGGUAAAAAAGAUCGGAAGAGCACACGUCU | 1.05
GGGUCGGCAUUCUAUAAUCGCGUGGAUAUGGCACGCAAGUUUCUACCGGGCACCGUAAAUGUCCGACUGGAGCCGUUCGGGCGGCUAUAAACAGACCUCAGGCCCGAAGCGUGGCGGCACCUGCCGCCGGUGGUAAAAAAGAUCGGAAGAGCACACGUCU | 1.22
GGGUCGAAUUAGAAUAAUCGCGUGGAUAUGGCACGCAAGUUUCUACCGGGCACCGUAAAUGUCCGACUGGAGCCGUUCGGGCGGCUAUAAACAGACCUCAGGCCCGAAGCGUGGCGGCACCUGCCGCCGGUGGUAAAAAAGAUCGGAAGAGCACACGUCU | 0.953
GGGUCGUGUCAGAAUAAUCGCGUGGAUAUGGCACGCAAGUUUCUACCGGGCACCGUAAAUGUCCGACUGGAGCCGUUCGGGCGGCUAUAAACAGACCUCAGGCCCGAAGCGUGGCGGCACCUGCCGCCGGUGGUAAAAAAGAUCGGAAGAGCACACGUCU | 1.08
GGGUCGUCGCCCGAUAAUCGCGUGGAUAUGGCACGCAAGUUUCUACCGGGCACCGUAAAUGUCCGACUGGAGCCGUUCGGGCGGCUAUAAACAGACCUCAGGCCCGAAGCGUGGCGGCACCUGCCGCCGGUGGUAAAAAAGAUCGGAAGAGCACACGUCU | 1.19
GGGUCGCACAGAGAUAAUCGCGUGGAUAUGGCACGCAAGUUUCUACCGGGCACCGUAAAUGUCCGACUGGAGCCGUUCGGGCGGCUAUAAACAGACCUCAGGCCCGAAGCGUGGCGGCACCUGCCGCCGGUGGUAAAAAAGAUCGGAAGAGCACACGUCU | 1.12
GGGUCGUCUUGGGAUAAUCGCGUGGAUAUGGCACGCAAGUUUCUACCGGGCACCGUAAAUGUCCGACUGGAGCCGUUCGGGCGGCUAUAAACAGACCUCAGGCCCGAAGCGUGGCGGCACCUGCCGCCGGUGGUAAAAAAGAUCGGAAGAGCACACGUCU | 1.1
GGGUCGAUCUACUAUAAUCGCGUGGAUAUGGCACGCAAGUUUCUACCGGGCACCGUAAAUGUCCGACUGGAGCCGUUCGGGCGGCUAUAAACAGACCUCAGGCCCGAAGCGUGGCGGCACCUGCCGCCGGUGGUAAAAAAGAUCGGAAGAGCACACGUCU | 1.07
GGGUCGGUGUGAGAUAAUCGCGUGGAUAUGGCACGCAAGUUUCUACCGGGCACCGUAAAUGUCCGACUGGAGCCGUUCGGGCGGCUAUAAACAGACCUCAGGCCCGAAGCGUGGCGGCACCUGCCGCCGGUGGUAAAAAAGAUCGGAAGAGCACACGUCU | 1.11
GGGUCGCAGACACAUAAUCGCGUGGAUAUGGCACGCAAGUUUCUACCGGGCACCGUAAAUGUCCGACUGGAGCCGUUCGGGCGGCUAUAAACAGACCUCAGGCCCGAAGCGUGGCGGCACCUGCCGCCGGUGGUAAAAAAGAUCGGAAGAGCACACGUCU | 1.09
GGGUCGCAUGUACAUAAUCGCGUGGAUAUGGCACGCAAGUUUCUACCGGGCACCGUAAAUGUCCGACUGGAGCCGUUCGGGCGGCUAUAAACAGACCUCAGGCCCGAAGCGUGGCGGCACCUGCCGCCGGUGGUAAAAAAGAUCGGAAGAGCACACGUCU | 1.12
GGGUCGAAGGGUCAUAAUCGCGUGGAUAUGGCACGCAAGUUUCUACCGGGCACCGUAAAUGUCCGACUGGAGCCGUUCGGGCGGCUAUAAACAGACCUCAGGCCCGAAGCGUGGCGGCACCUGCCGCCGGUGGUAAAAAAGAUCGGAAGAGCACACGUCU | 1.46
GGGUCGUGCCGGGAUAAUCGCGUGGAUAUGGCACGCAAGUUUCUACCGGGCACCGUAAAUGUCCGACUGGAGCCGUUCGGGCGGCUAUAAACAGACCUCAGGCCCGAAGCGUGGCGGCACCUGCCGCCGGUGGUAAAAAAGAUCGGAAGAGCACACGUCU | 1.11
GGGUCGCACGUUCAUAAUCGCGUGGAUAUGGCACGCAAGUUUCUACCGGGCACCGUAAAUGUCCGACUGGAGCCGUUCGGGCGGCUAUAAACAGACCUCAGGCCCGAAGCGUGGCGGCACCUGCCGCCGGUGGUAAAAAAGAUCGGAAGAGCACACGUCU | 1.36
GGGUCGGCUUUCAAUAAUCGCGUGGAUAUGGCACGCAAGUUUCUACCGGGCACCGUAAAUGUCCGACUGGAGCCGUUCGGGCGGCUAUAAACAGACCUCAGGCCCGAAGCGUGGCGGCACCUGCCGCCGGUGGUAAAAAAGAUCGGAAGAGCACACGUCU | 1.36
GGGUCGGCCCCUUAUAAUCGCGUGGAUAUGGCACGCAAGUUUCUACCGGGCACCGUAAAUGUCCGACUGGAGCCGUUCGGGCGGCUAUAAACAGACCUCAGGCCCGAAGCGUGGCGGCACCUGCCGCCGGUGGUAAAAAAGAUCGGAAGAGCACACGUCU | 1.03
